Experimental data published in patent US12545899B2, “Luciferase enzymes for use with thermostable luciferins in bioluminescent assays” (Promega Corporation, priority 2018, dated 2026).

What was measured:
[1] = Activity of ATG-2671 with luciferin analogs; format: biochemical; settings: data not shown
Description: FIG. 15 includes representative graphs of kinetic activity of the luciferase enzyme variant ATG-2671 with D/L-luciferin. […] The composition was incubated for 3 mins and read on GloMax® Multi+platform.

[2] = Km for ATP with saturating substrate (FIG. 18); format: biochemical; settings: with CS0333, relative to Ppe variant with luciferin
Description: Reagent composition included 1 mM substrate, 100 fM-100 uM ATP (10-fold dilutions), and 0.1 mg/ml enzyme. […] Thus, the combination of the ATG-3674 luciferase enzyme variant with the thermostable CS0333 luciferin analog substrate will be effective in ATP detection/quantification assays.

| Molecule | activity with luciferin analogs [1] | Km values for ATP [2] |
| --- | --- | --- |
| ATG-2671: luciferase enzyme variant ATG-2671 (G245A+L285I+G315A) (protein) MADKNILYGPEPFYPLEDGTAGEQMFDALSRYAAIPGCIALTNAHTKENVLYEEFLKLSCRLAESFKKYGLKQNDTIAVCSENSLQFFLPVIASLYLGIIVAPVNDKYIERELIHSLGIVKPRIVFCSKNTFQKVLNVKSKLKSIETIIILDLNEDLGGYQCLNNFISQNSDSNLDVKKFKPYSFNRDDQVASIMFSSGTTGLPKGVMLTHKNIVARFSIAKDPTFGNAINPTSAILTVIPFHHAFGMMTTLGYFTCGFRVVLMHTFEEKLFLQSLQDYKVESTILVPTLMAFLAKSALCEKYDLSHLKEIASGAAPLSKEIGEMVKKRFKLNFVRQGYGLTETTSAVLITPKGDAKPGSTGKIVPLHAVKVVDPTTGKILGPNEPGELYFKGPMIMKGYYNNEEATKAIIDNDGWLRSGDIAYYDNDGHFYIVDRLKSLIKYKGYQVAPAEIEGILLQHPYIVDAGVTGIPDEAAGELPAAGVVVQTGKYLNEQIVQDYVASQVSTAKWLRGGVKFLDEIPKGSTGKIDRKVLRQMLEKHTNGHHHHHHHH | not active |  |
| ATG-3674: SEQ ID NO: 25; H244W+T344A+I396K+S193A+N228D+L305F+S306P (protein) MADKNILYGPEPFYPLEDGTAGEQMFDALSRYAAIPGCIALTNAHTKENVLYEEFLKLSCRLAESFKKYGLKQNDTIAVCSENSLQFFLPVIASLYLGIIVAPVNDKYIERELIHSLGIVKPRIVFCSKNTFQKVLNVKSKLKSIETIIILDLNEDLGGYQCLNNFISQNSDSNLDVKKFKPYSFNRDDQVAAIMFSSGTTGLPKGVMLTHKNIVARFSIAKDPTFGDAINPTSAILTVIPFHWGFGMMTTLGYFTCGFRVVLMHTFEEKLFLQSLQDYKVESTLLVPTLMAFLAKSALVEKYDFPHLKEIASGGAPLSKEIGEMVKKRFKLNFVRQGYGLTEATSAVLITPKGDAKPGSTGKIVPLHAVKVVDPTTGKILGPNEPGELYFKGPMKMKGYYNNEEATKAIIDNDGWLRSGDIAYYDNDGHFYIVDRLKSLIKYKGYQVAPAEIEGILLQHPYIVDAGVTGIPDEAAGELPAAGVVVQTGKYLNEQIVQDYVASQVSTAKWLRGGVKFLDEIPKGSTGKIDRKVLRQMLEKHTNGHHHHHHHH |  | equivalent to improved Km values for ATP |
